Test results as given in paper PMC4142144 (Molecular cell, 2014).
Blank lines part the entries; values can stand above or below the binder they belong to.

Experiments:
mono-ubiquitin = mono-ubiquitin (UniProt P0CG48 1-76); experiment: crystal structure
SEC-MALS = target: the molecule itself; experiment: SEC-MALS

binding result (mono-ubiquitin): binds
B1: 2CARD^RIG-I(E52A) (domain or fragment, human, UniProt O95786 1-188, looked up)
chain: MTTEQRRSLQAFQDYIRKTLDPTYILSYMAPWFREEEVQYIQAEKNNKGPMAAATLFLKFLLELQEEGWFRGFLDALDHAGYSGLYEAIESWDFKKIEKLEEYRLLLKRLQPEFKTRIIPTDIISDLSECLINQECEEILQICSTKGMMAGAEKLVECLLRSDKENWPKTLKLALEKERNKFSELWIV

B2: 2CARD^RIG-I(E52A)-CARD^MAVS(KKK) fusion protein, 42 aa linker (other)
chain: MTTEQRRSLQAFQDYIRKTLDPTYILSYMAPWFREEEVQYIQAEKNNKGPMAAATLFLKFLLELQEEGWFRGFLDALDHAGYSGLYEAIESWDFKKIEKLEEYRLLLKRLQPEFKTRIIPTDIISDLSECLINQECEEILQICSTKGMMAGAEKLVECLLRSDKENWPKTLKLALEKERNKFSELWIVMPFAEDKTYKYICRNFSNFCNVKVVKILPYLPCLTARDQDRLRATCTLSGNRDTLWHLFNTLQRRPGWVEYFIAALRGCKLVDLADEVASVYQSYQP
stoichiometry N (SEC-MALS): 4
